Reference: publication PMC2918618, “Characterization of the TnsD-attTn7 complex that promotes site-specific insertion of Tn7” (Mobile DNA, 2010)
Substitutions are numbered along the chain they refer to.

How the values were obtained:
Experiment in all cases: EMSA; Gel-shift buffer not given (as described in ref. 6); TnsD stored in 500 mM KCl, 50 mM Tris-HCl pH 8.0, 1 mM EDTA, 2 mM DTT, 25% glycerol
TnsD W371Z = molecular target: T1, TnsD W371Z (Escherichia coli (transposon Tn7), UniProt P13991 1-370); conditions: protein: recombinant
T1 sequence: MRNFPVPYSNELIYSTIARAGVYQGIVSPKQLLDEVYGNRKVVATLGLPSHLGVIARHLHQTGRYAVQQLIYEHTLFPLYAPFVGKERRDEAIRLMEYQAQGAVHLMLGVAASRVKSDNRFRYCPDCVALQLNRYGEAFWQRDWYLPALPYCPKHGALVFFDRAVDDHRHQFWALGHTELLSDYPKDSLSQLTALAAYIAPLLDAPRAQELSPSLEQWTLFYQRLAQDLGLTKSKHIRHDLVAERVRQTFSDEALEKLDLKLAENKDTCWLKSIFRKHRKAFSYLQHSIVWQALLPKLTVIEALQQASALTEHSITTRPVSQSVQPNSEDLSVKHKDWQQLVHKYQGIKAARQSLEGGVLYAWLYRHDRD

TnsD H155S = molecular target: T2, TnsD H155S (Escherichia coli (transposon Tn7), UniProt P13991 1-508, H155S); conditions: protein: recombinant; tags: intein-chitin tag, cleaved with DTT
T2 sequence: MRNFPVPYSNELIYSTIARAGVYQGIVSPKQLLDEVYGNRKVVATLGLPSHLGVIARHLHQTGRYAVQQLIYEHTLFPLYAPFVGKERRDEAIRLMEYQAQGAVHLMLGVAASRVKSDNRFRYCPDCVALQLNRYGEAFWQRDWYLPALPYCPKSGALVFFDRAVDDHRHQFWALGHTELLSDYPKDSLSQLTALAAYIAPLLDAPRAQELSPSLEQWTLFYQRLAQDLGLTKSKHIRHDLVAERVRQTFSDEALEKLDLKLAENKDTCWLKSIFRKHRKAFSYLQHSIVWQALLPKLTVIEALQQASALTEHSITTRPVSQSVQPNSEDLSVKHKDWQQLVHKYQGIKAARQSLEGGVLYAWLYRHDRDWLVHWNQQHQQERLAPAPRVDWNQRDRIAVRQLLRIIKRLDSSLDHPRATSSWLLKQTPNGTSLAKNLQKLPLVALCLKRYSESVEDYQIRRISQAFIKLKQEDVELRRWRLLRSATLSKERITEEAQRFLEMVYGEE

TnsD C127S = molecular target: T3, TnsD C127S (Escherichia coli (transposon Tn7), UniProt P13991 1-508, C127S); conditions: protein: recombinant; tags: intein-chitin tag, cleaved with DTT
T3 sequence: T2 sequence with C127S, S155H

TnsD C124S = molecular target: T4, TnsD C124S (Escherichia coli (transposon Tn7), UniProt P13991 1-508, C124S); conditions: protein: recombinant; tags: intein-chitin tag, cleaved with DTT
T4 sequence: T2 sequence with C124S, S155H

B1: attTn7 wt (+23 to +58) (dsDNA)
DNA 1: CCGCGTAACCTGGCAAAATCGGTTACGGTTGAGTAA
DNA 2: TTACTCAACCGTAACCGATTTTGCCAGGTTACGCGG
- binding signal (TnsD W371Z): < 0.05 relative to wt
- binding signal (TnsD H155S): 0.05 relative to wt
- binding signal (TnsD C127S): 0.05 relative to wt
- binding signal (TnsD C124S): 0.05 relative to wt
